Source: PMC7367449

Experiments:
[1] = target: recombinant hCD134 with C-terminal human FcHis-tag replacing the transmembrane domain (hCD134-hFcHis) (human) (UniProt P43489); experiment: SPR; Biacore T200, CM5 chip; hCD134-hFcHis captured via immobilised Protein A; soluble tetramer injected; steady-state affinity analysis of the response units at equilibrium
[2] = target: recombinant hCD134 with C-terminal human FcHis-tag replacing the transmembrane domain (hCD134-hFcHis) (human) (UniProt P43489); experiment: SPR; Biacore T200, CM5 chip; hCD134-hFcHis captured via immobilised Protein A; soluble tetramer injected; multi-cycle kinetics, 1:1 binding fit
[3] = target: anti-gH Mab OHV-3 (murine); experiment: SPR; Biacore T200, CM5 chip; Mab captured via immobilised Protein A/Protein L; soluble tetramer injected at 5, 10, 20, 40 and 80 nM; single-cycle kinetics
anti-gH Mab OHV-3 (murine), sequence (heavy, as listed by the source, chain 1 of 2): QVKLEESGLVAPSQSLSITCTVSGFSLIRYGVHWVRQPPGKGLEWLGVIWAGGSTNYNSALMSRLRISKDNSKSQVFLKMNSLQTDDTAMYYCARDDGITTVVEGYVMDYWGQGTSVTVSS
anti-gH Mab OHV-3 (murine), sequence (light, as listed by the source, chain 2 of 2): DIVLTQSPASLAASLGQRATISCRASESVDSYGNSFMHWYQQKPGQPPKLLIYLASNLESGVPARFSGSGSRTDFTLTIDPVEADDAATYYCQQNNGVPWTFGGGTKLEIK

UniProt P43489, sequence (P43489 29-214): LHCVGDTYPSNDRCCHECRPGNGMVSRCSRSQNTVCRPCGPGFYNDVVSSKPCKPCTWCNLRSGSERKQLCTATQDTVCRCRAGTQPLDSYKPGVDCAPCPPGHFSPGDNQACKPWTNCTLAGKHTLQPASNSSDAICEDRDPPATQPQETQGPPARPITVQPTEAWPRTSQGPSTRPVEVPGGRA

With “soluble HHV-6B gH/gL/gQ1/gQ2 complex (HHV-6B tetramer)” the Kd [1] was 18 nM, the Kd [2] was 14 nM and the koff [2] was 0.0158 s⁻¹. For the same substance, the kon [2] was 1.1e+06 M⁻¹ s⁻¹, the Kd [3] was 2.7 nM and the koff [3] was 0.00035 s⁻¹. The kon [3] was 130000 M⁻¹ s⁻¹.
